Reference: the DeepSol protein solubility set

experiment: soluble on expression in E. coli; label from the status in PepcDB or PDB records

Row | Sequence | soluble on expression in E. coli
1 | GMKFNEFLNNLSNYEPGKDIEVIAKEYGVKEVIKLASNENPFGTPPKAIECLRQNANKAHLYPDDSMIELKSTLAQKYKVQNENIIIGAGSDQVIEFAIHSKLNSKNAFLQAGVTFAMYEIYAKQCGAKCYKTQSITHNLDEFKKLYETHKDEIKLIFLCLPNNPLGECLDASEATEFIKGVNEDCLVVIDAAYNEFASFKDSKKHLEPCELIKEFDNVLYLGTFSKLYGLGGLRIGYGIANANIISAFYKLRAPFNVSNLALKAAVAAMDDDEFTEKTLENNFSQMELYKEFAKKHNIKIIDSYTNFITYFFDEKNSTDLSEKLLKKGIIIRNLKSYGLNAIRITIGTSYENEKFFTEFDKILR | soluble
2 | MGSDKIHHHHHHMRKDKNGTQEPKAKYRVRNWAAYNAGLINRGNITMWIGDDALANMPDTEPTRGRSRLYSDALIQALLGLKTVFHLPLRALQGFAQSLRDLAFAELPVPNYTTVCRRAQALQVKLPVIHSDEPLHLVVDSTGAKVCGEGEWKVRQHGYSKRRTWRKVHLALDANTGQLRAALMTHQDVADGEVLPELLEQISADESIDTIGGDGAYDTQACYASITARGALPSIPPREGAVHWPTTTPGASRRNAALDAIAQGSRREWKQQSGYHRRSLAENAMYRLKTLTGPCLWARRTDTQATEVAVRVGVLNRMAELSRPQSVRIARDHEQRHHFVLTPDLCNNVHSSAERRQGRVSCAMHATI | not soluble
3 | GPGSMEDAHMLVATDDADVAYFGIFDGHSNAECSAYVARELPQRLKKLPESITAEMLEKVCIEVDEAYMKTSTEGGTTGTFCVIRKDLTVTIANVGDSRILVCRGGKLIFATEDHKPYIPGETERIVACGGSVVSNRVDGDLAVSRAFGDASFKVKGTKDYRMQKVIAVPDVSVLQCEPNDFIILACDGVFEGNFSNEDVCQFVWEQQQNCWDDLAVVACRVCDEAIRCGSKDNISCLVVQLAEGASRVKAFGATSFVPGPPFPRNQQPCRAAYAQMAELGHTTTAAALQTRYQLLQAFSKNKLNSQPPVMRTAFEMSDEVDVETEWSFFGKGPAPGNEKNFFEALANTGNSS | not soluble
4 | MAHHHHHHMSMHSVEGALCSCSMCKLTCHTASVYANQRRASKHVMLARPSPFYAETGGLPPEVPQLAPPPERLVVCPVFEEYGFCPFGRICFLPHSGEKTPLVERKGTSREELERLREKARLQEEEELWSCDVCGFDGIDENTQGRVGEMYYYRNCPRCSLMCYFPHIAYLVDAIFDASGDDYQIFKDEIDRCRRELPDILKVPLTYEAHRIASTAFAWSLVSPKHVKDALDAAYRALPEMSCIVSVGSGVGYVEHIFNRVANGVPAAPRDPDPALGISSFEGVHACFYPKKKLPIYAFDEVALNCPYSVCVSLGGPVALLSLQCPTSVLLLSWPPFGSPKEEQSSMAFEALEYFTQAGGKVVIYIGDVASTGDWRFHELLYTHYKLVKDYTVRREVRRWSPQDMGLVYAGNDTIGVYKLRSERLPSPQWQWDGRSS | not soluble
5 | MVHVSGTKVKVVKKKLTKFKRHESDRYRRVAPSWRKPKGIDNRVRRRFRGMRAMPTIGHGSDRRTRFVLPNGYKKVLVQNVKDLDMLLMQSYKYIGEIGHGVSAKSRKGIVERAAQLNIKLTNGNARLRTEESE | not soluble
6 | MGHHHHHHSHCDSDCLWVGLAGPQILPPCRSIVRTLHQHKLGRASWPSVQQGLQQSFLHTLDSYRILQKAAPFDRRATSLAWHPTHPSTVAVGSKGGDIMLWNFGIKDKPTFIKGIGAGGSITGLKFNPLNTNQFYASSMEGTTRLQDFKGNILRVFASSDTINIWFCSLDVSASSRMVVTGDNVGNVILLNMDGKELWNLRMHKKKVTHVALNPCCDWFLATASVDQTVKIWDLRQVRGKASFLYSLPHRHPVNAACFSPDGARLLTTDQKSEIRVYSASQWDCPLGLIPHPHRHFQHLTPIKAAWHPRYNLIVVGRYPDPNFKSCTPYELRTIDVFDGNSGKMMCQLYDPESSGISSLNEFNPMGDTLASAMGYHILIWSQEEARTRK | not soluble
7 | MYIVVSTGDRAARIASKLPDCIIIDRDPDSAERLKEKGFNVLNGDASNPEILARFDMGEKIILADNDDFNIKVVKTAKLLGLDVYAVAADEDKCWLYEVEGVSKICGSVEALLSTIFRKNRYFEIQVEAEMEGKTL | not soluble
8 | MAGYVGDVAIAYDRDLGHVLFEQYASDIARRTAGKPVRDVLEVASGTGIVTRQLRNVLPGDAQLTAIDISDSMMEVARTKFLPHEQVTFQVANAVALPFDDRAFDTVVCQFGVMFFDKDKAFQETHRVLRQGGRYLFSVWDSRDYNPYASLTFEVMKQFFPSDPPRFLESTVSSFEIDPVKERLIRAGFEQISISVQRRIYDIPDIRAFARGLIFSPIINEIRERGEVDPDDIVEALVKIFIGEYGSNPTRFPMQAILFETEKPLEHHHHHH | not soluble
